From patent US20240392004A1 (IMMUNOWAKE, published 2024)

Tests used:
Experiment in all cases: cell-based or functional assay
[1] = molecular target: human IL-12 receptor complex (IL-12Rβ1 and IL-12Rβ2) (human, UniProt P42701 24-662; Q99665 24-862)
[2] = molecular target: T1, IFN-γ receptor (IFNGR1 and IFNGR2) (UniProt P15260 18-489; P38484 22-337, limits assumed)
T1 sequence (looked up) 1: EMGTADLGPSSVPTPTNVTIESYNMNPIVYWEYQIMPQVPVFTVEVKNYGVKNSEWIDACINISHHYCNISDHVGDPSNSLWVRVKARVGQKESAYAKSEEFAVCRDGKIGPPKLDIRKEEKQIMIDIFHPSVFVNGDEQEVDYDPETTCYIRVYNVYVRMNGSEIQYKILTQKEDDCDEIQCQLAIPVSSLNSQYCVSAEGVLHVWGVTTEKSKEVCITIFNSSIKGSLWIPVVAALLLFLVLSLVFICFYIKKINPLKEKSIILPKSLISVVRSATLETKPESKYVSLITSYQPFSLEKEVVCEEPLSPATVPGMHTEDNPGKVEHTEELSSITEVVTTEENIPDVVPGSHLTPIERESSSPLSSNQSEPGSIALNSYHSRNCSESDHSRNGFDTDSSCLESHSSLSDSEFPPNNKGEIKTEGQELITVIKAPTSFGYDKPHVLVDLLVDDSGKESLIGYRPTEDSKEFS
T1 sequence (looked up) 2: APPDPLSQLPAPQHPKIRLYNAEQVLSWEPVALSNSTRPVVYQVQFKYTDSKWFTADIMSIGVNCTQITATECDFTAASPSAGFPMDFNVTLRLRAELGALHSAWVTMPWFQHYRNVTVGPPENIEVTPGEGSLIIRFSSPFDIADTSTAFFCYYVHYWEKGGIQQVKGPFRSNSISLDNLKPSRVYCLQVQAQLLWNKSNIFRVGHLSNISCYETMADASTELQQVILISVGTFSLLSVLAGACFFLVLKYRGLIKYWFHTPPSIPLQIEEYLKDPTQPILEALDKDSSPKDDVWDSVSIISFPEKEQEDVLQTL

[3] = molecular target: T2, human TIGIT on HEK-Blue reporter cells (human, UniProt Q495A1 22-244)
T2 sequence (looked up): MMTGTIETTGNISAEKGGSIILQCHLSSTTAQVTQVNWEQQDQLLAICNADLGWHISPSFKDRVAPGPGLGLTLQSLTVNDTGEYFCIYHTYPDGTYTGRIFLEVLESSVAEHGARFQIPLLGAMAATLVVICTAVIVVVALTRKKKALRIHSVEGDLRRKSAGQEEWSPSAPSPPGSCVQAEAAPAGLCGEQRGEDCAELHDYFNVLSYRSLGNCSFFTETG

Chain of human IL-12 receptor complex (IL-12Rβ1 and IL-12Rβ2) (Q99665 24-862, chain 2 of 2, other chains not shown): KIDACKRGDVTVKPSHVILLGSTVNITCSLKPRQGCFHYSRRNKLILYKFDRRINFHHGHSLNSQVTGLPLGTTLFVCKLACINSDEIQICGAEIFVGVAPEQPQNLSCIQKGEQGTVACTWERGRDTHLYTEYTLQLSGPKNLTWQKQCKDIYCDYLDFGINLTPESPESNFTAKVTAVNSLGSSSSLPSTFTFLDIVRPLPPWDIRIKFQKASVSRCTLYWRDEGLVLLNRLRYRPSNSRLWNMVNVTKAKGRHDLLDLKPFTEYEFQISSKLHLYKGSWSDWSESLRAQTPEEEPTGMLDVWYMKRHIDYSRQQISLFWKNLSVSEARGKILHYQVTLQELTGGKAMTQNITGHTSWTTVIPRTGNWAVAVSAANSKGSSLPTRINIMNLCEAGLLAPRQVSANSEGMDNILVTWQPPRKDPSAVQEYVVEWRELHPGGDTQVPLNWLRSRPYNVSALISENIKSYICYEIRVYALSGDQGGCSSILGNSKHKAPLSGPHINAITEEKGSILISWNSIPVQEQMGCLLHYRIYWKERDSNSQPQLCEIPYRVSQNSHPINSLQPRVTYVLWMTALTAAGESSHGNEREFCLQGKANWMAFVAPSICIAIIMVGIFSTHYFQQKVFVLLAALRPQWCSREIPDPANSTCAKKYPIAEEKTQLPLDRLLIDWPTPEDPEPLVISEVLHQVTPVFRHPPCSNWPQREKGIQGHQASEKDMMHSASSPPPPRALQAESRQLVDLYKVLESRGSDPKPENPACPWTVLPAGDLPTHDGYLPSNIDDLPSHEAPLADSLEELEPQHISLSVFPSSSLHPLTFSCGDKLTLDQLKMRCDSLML

B1: IFN-γ(A23V/A23V)/CD155-Fc/IL-12(E59A/F60A) (Fc fusion)
chain 1: WPPPGTGDVVVQAPTQVPGFLGDSVTLPCYLQVPNMEVTHVSQLTWARHGESGSMAVFHQTQGPSYSESKRLEFVAARLGAELRNASLRMFGLRVEDEGNYTCLFVTFPQGSRSVDIWLRVLAKPQNTAEVQKVQLTGEPVPMARCVSTGGRPPAQITWHSDLGGMPNTSQVPGFLSGTVTVTSLWILVPSSQVDGKNVTCKVEHESFEKPQLLTVNLTVYYPPEVSISGYDNNWYLGQNEATLTCDARSNPEPTGYNWSTTMGPLPPFAVAQGAQLLIRPVDKPINTTLICNVTNALGARQAELTVQVKEGPPSEHSGISRNGGGGSGGGDKTHTCPPCPAPEDEGGPSVFLFPPKPKDTLMISRTPEVTCVVVDVSHEDPEVKFNWYVDGVEVHNAKTKPREEQYNSTYRVVSVLTVLHQDWLNGKEYKCKVSNKALPAPIEKTISKAKGQPREPQVYVYPPSREEMTKNQVSLTCLVKGFYPSDIAVEWESNGQPENNYKTTPPVLDEDGSFALVSKLTVDKSRWQQGNVFSCSVMHEALHNHYTQKSLSLSPGKGGGGSGGGIWELKKDVYVVELDWYPDAPGEMVVLTCDTPEEDGITWTLDQSSEVLGSGKTLTIQVKAAGDAGQYTCHKGGEVLSHSLLLLHKKEDGIWSTDILKDQKEPKNKTFLRCEAKNYSGRFTCWWLTTISTDLTFSVKSSRGSSDPQGVTCGAATLSAERVRGDNKEYEYSVECQEDSACPAAEESLPIEVMVDAVHKLKYENYTSSFFIRDIIKPDPPKNLQLKPLKNSRQVEVSWEYPDTWSTPHSYFSLTFCVQVQGKSKREKKDRVFTDKTSATVICRKNASISVRAQDRYYSSSWSEWASVPCSGGGGSGGGSGGGGSRNLPVATPDPGMFPCLHHSQNLLRAVSNMLQKARQTLEFYPCTSEEIDHEDITKDKTSTVEACLPLELTKNESCLNSRETSFITNGSCLASRKTSFMMALCLSSIYEDLKMYQVEFKTMNAKLLMDPKRQIFLDQNMLAVIDELMQALNFNSETVPQKSSLEEPDFYKTKIKLCILLHAFRIRAVTIDRVMSYLNAS
chain 2: WPPPGTGDVVVQAPTQVPGFLGDSVTLPCYLQVPNMEVTHVSQLTWARHGESGSMAVFHQTQGPSYSESKRLEFVAARLGAELRNASLRMFGLRVEDEGNYTCLFVTFPQGSRSVDIWLRVLAKPQNTAEVQKVQLTGEPVPMARCVSTGGRPPAQITWHSDLGGMPNTSQVPGFLSGTVTVTSLWILVPSSQVDGKNVTCKVEHESFEKPQLLTVNLTVYYPPEVSISGYDNNWYLGQNEATLTCDARSNPEPTGYNWSTTMGPLPPFAVAQGAQLLIRPVDKPINTTLICNVTNALGARQAELTVQVKEGPPSEHSGISRNGGGSGQDPYVKEAENLKKYFNAGHSDVVDNGTLFLGILKNWKEESDRKIMQSQIVSFYFKLFKNFKDDQSIQKSVETIKEDMNVKFFNSNKKKRDDFEKLTNYSVTDLNVQRKAIHELIQVMAELSPAAKTGKRKRSQMLFRGGGGSGGGGSGGGGSGGGGSQDPYVKEAENLKKYFNAGHSDVVDNGTLFLGILKNWKEESDRKIMQSQIVSFYFKLFKNFKDDQSIQKSVETIKEDMNVKFFNSNKKKRDDFEKLTNYSVTDLNVQRKAIHELIQVMAELSPAAKTGKRKRSQMLFRGGGGGSGGGDKTHTCPPCPAPEKKGGPSVFLFPPKPKDTLMISRTPEVTCVVVDVSHEDPEVKFNWYVDGVEVHNAKTKPREEQYNSTYRVVSVLTVLHQDWLNGKEYKCKVSNKALPAPIEKTISKAKGQPREPQVYVLPPSREEMTKNQVSLLCLVKGFYPSDIAVEWESNGQPENRYMTWPPVLDSDGSFFLYSKLTVDKSRWQQGNVFSCSVMHEALHNHYTQKSLSLSPGK
[1]
  IL-12 signal transduction, HEK-IL-12: 2%
[2]
  IFN-γ signal transduction, HEK-IFN-γ: < 0.2%
[3]
  IL-12 signal transduction, HEK-IL-12-TIGIT: 60%
